# Measurements as given in the supplement of paper PMC10567573.
# B1: NET1 (parent)
# chain: RVRPLARVTSLANLISPVRNGAVR
# Variants of: B1
# Test: protein stability index of a GFP-peptide fusion (GPS, HEK-293T) (PSI 1-6); higher = more stable
# Conditions: c terminus: a fixed tail appended
# 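Also: lentivirally expressed fusions sorted by FACS into six bins by GFP to DsRed ratio, PSI derived from sequencing read proportions per bin multiplied by bin number.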
row,Variant,protein stability index
1,RVRPLARVTSCANLISPVRNGAVR,2.56
2,RVRPLARVTSVANLISPVRNGAVR,3.08
3,RVRPLARVTSYANLISPVRNGAVR,2.43
4,RVRPLARVTSMANLISPVRNGAVR,3.45
5,RVRPLARVTSSANLISPVRNGAVR,3.14
6,RVRPLARVTSAANLISPVRNGAVR,3.98
7,RVRPLARVTSHANLISPVRNGAVR,2.94
8,RVRPLARVTSIANLISPVRNGAVR,2.83
9,RVRPLARVTSQANLISPVRNGAVR,4.39
10,RVRPLARVTSFANLISPVRNGAVR,3.19
11,RVRPLARVTSRANLISPVRNGAVR,3.29
12,RVRPLARVTSPANLISPVRNGAVR,3.96
13,RVRPLARVTSEANLISPVRNGAVR,3.56
14,RVRPLARVTSNANLISPVRNGAVR,3.77
15,RVRPLARVTSWANLISPVRNGAVR,1.98
16,RVRPLARVTSDANLISPVRNGAVR,3.24
17,RVRPLARVTSGANLISPVRNGAVR,3.25
18,RVRPLARVTSTANLISPVRNGAVR,3.56
19,RVRPLARVTSKANLISPVRNGAVR,3.21
20,RVRPLARVDSLANLISPVRNGAVR,3.73
21,RVRPLARVMSLANLISPVRNGAVR,2.66
22,RVRPLARVESLANLISPVRNGAVR,2.87
23,RVRPLARVQSLANLISPVRNGAVR,3.81
24,RVRPLARVNSLANLISPVRNGAVR,3.38

row,Variant,protein stability index
1,RVRPLARVSSLANLISPVRNGAVR,3.45
2,RVRPLARVYSLANLISPVRNGAVR,3.12
3,RVRPLARVHSLANLISPVRNGAVR,2.75
4,RVRPLARVFSLANLISPVRNGAVR,2.85
5,RVRPLARVWSLANLISPVRNGAVR,3.24
6,RVRPLARVPSLANLISPVRNGAVR,2.74
7,RVRPLARVASLANLISPVRNGAVR,2.81
8,RVRPLARVRSLANLISPVRNGAVR,2.76
9,RVRPLARVISLANLISPVRNGAVR,1.84
10,RVRPLARVVSLANLISPVRNGAVR,2.96
11,RVRPLARVCSLANLISPVRNGAVR,3.08
12,RVRPLARVGSLANLISPVRNGAVR,3.68
13,RVRPLARVKSLANLISPVRNGAVR,3.69
14,RVRPLARVLSLANLISPVRNGAVR,2.09
15,RVRPLARVTSLANLSSPVRNGAVR,3.63
16,RVRPLARVTSLANLKSPVRNGAVR,3.27
17,RVRPLARVTSLANLCSPVRNGAVR,2.76
18,RVRPLARVTSLANLASPVRNGAVR,4.27
19,RVRPLARVTSLANLFSPVRNGAVR,2.76
20,RVRPLARVTSLANLYSPVRNGAVR,3.27
21,RVRPLARVTSLANLDSPVRNGAVR,3.65
22,RVRPLARVTSLANLNSPVRNGAVR,3.97
23,RVRPLARVTSLANLVSPVRNGAVR,3.39
24,RVRPLARVTSLANLRSPVRNGAVR,3.56

row,Variant,protein stability index
1,RVRPLARVTSLANLHSPVRNGAVR,4.02
2,RVRPLARVTSLANLQSPVRNGAVR,3.66
3,RVRPLARVTSLANLGSPVRNGAVR,3.6
4,RVRPLARVTSLANLMSPVRNGAVR,3.29
5,RVRPLARVTSLANLLSPVRNGAVR,3.03
6,RVRPLARVTSLANLTSPVRNGAVR,3.5
7,RVRPLARVTSLANLESPVRNGAVR,4.08
8,RVRPLARVTSLANLPSPVRNGAVR,3.31
9,RVRPLARVTSLANLWSPVRNGAVR,2.47
10,RVRPLARVTWLANLISPVRNGAVR,1.99
11,RVRPLARVTKLANLISPVRNGAVR,2.41
12,RVRPLARVTFLANLISPVRNGAVR,1.46
13,RVRPLARVTQLANLISPVRNGAVR,3.42
14,RVRPLARVTHLANLISPVRNGAVR,2.54
15,RVRPLARVTALANLISPVRNGAVR,2.51
16,RVRPLARVTCLANLISPVRNGAVR,1.62
17,RVRPLARVTRLANLISPVRNGAVR,3.06
18,RVRPLARVTMLANLISPVRNGAVR,1.78
19,RVRPLARVTDLANLISPVRNGAVR,2.54
20,RVRPLARVTVLANLISPVRNGAVR,3.11
21,RVRPLARVTLLANLISPVRNGAVR,1.43
22,RVRPLARVTPLANLISPVRNGAVR,3.01
23,RVRPLARVTELANLISPVRNGAVR,3
24,RVRPLARVTNLANLISPVRNGAVR,3.08

row,Variant,protein stability index
1,RVRPLARVTILANLISPVRNGAVR,3.84
2,RVRPLARVTYLANLISPVRNGAVR,2.04
3,RVRPLARVTGLANLISPVRNGAVR,2.52
4,RVRPLARVTSLAELISPVRNGAVR,3.22
5,RVRPLARVTSLAVLISPVRNGAVR,2.33
6,RVRPLARVTSLACLISPVRNGAVR,1.93
7,RVRPLARVTSLAALISPVRNGAVR,2.75
8,RVRPLARVTSLAYLISPVRNGAVR,1.38
9,RVRPLARVTSLAHLISPVRNGAVR,2.66
10,RVRPLARVTSLALLISPVRNGAVR,1.98
11,RVRPLARVTSLADLISPVRNGAVR,3.43
12,RVRPLARVTSLAQLISPVRNGAVR,2.52
13,RVRPLARVTSLAGLISPVRNGAVR,3.05
14,RVRPLARVTSLAKLISPVRNGAVR,2.84
15,RVRPLARVTSLAMLISPVRNGAVR,1.92
16,RVRPLARVTSLAPLISPVRNGAVR,3.65
17,RVRPLARVTSLAILISPVRNGAVR,2.34
18,RVRPLARVTSLASLISPVRNGAVR,2.65
19,RVRPLARVTSLAFLISPVRNGAVR,2.6
20,RVRPLARVTSLARLISPVRNGAVR,3.33
21,RVRPLARVTSLAWLISPVRNGAVR,1.72
22,RVRPLARVTSLATLISPVRNGAVR,3.11
